Results as given in patent US20210069341A1.

Biological target: FcRn-biotin (UniProt P55899)
Assay: ELISA

- EC50: 315 nM
Substance: LC-V205C (from UniProt P01834 1-107)
